From patent US20080139477

Biological target: Flag-tagged collagen type III fusion protein (Flag-helix-C-tel-C-pro) expressed from YEpFlagCOLIII1.6 kb (UniProt P02461)
Sequence of UniProt P02461 (P02461 other isoform, or with tags, fused parts or gaps): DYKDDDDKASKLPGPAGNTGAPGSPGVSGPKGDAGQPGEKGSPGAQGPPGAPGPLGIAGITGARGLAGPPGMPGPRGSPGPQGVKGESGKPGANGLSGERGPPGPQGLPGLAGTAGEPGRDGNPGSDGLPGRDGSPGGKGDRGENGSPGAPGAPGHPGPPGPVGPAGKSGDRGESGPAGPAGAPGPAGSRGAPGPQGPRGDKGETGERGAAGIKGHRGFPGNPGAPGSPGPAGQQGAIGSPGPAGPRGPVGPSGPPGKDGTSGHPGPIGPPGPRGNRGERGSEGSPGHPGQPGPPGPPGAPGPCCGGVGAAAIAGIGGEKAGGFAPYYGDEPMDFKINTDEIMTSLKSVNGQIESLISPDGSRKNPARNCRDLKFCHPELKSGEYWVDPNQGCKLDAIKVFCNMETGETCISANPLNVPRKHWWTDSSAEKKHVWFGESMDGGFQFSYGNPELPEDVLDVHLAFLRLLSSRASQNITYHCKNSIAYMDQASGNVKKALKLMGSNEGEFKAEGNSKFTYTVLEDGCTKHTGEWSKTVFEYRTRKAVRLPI

With “prolyl-4-hydroxylase (P4H, α2β2) expressed from pYEUra3.2.12β#39α#5” the “hydroxyproline by amino acid analysis of the 60 kDa band” value was “Amino acid analysis revealed the presence of hydroxyproline in this material from co-transformants ... after induction with 0.2% galactose but no hydroxyproline was detected with protein from control samples”.
